Results from article PMC7316157 (Journal of the American Chemical Society, 2012).
Where two headings read alike, the source gives them in different places. Each block holds one molecule with its values, some of them ahead of it.

Assays:
L-Ac-(FEFE)2-NH2 [1] = assay: ITC
[2] = target: the molecule itself; assay: TEM + CD + IR spectroscopy of fibrils
L-Ac-(FEFE)2-NH2 [3] = target: T1, L-Ac-(FEFE)2-NH2; assay: ITC
T1 peptide: Ac-FEFEFEFE-NH2

[4] = target: the molecule itself; assay: isotope-edited IR spectroscopy

dH (L-Ac-(FEFE)2-NH2 [1]): -31.6 kcal/mol
Molecule: D-Ac-(FKFK)2-NH2 (peptide)

dH (L-Ac-(FEFE)2-NH2 [3]): -40.9 ± 0.6 kcal/mol
B2: L-Ac-(FKFK)2-NH2 (peptide)
peptide: Ac-FKFKFKFK-NH2

Second part, the molecule before the results:

B1: L-Ac-(FKFE)2-NH2 (peptide)
peptide: Ac-FKFEFKFE-NH2
binding result [2]: binds

B3: L-Ac-(FKFE)2-NH2 doubly 1-13C-labeled at Phe 1/Phe 7 (peptide)
peptide: Ac-F(1‑13C)KFEFKF(1‑13C)E-NH2
binding result [4]: binds
